In patent US20250327097A1, “ORGANISMS PRODUCING LESS CROTONIC ACID” (Global Bioenergies, priority 2021, published 2025):

Each molecule was assayed on 3-methylcrotonic acid.
Type: biochemical, Yersinia frederiksenii
Parameters: key: “+” representing a low increase in activity; “++++” representing a high increase in activity

| Molecule | Activity relative to WT |
| --- | --- |
| I283T-P284D-i284aP-N287P-S322T-N388M-C430N-L432F-L434W-S436N-H461A-dG462-A463T (protein) MFLKSLREQINLLKRQGDLRIINRPVDSYLEAAAIIRRSTETKAPVPLMTNIKGYPGCSIVGGLAALSSNPEYPLSRVAMSLGLSTTASAQSIVQYLIDGLKKTPYLPVEIDSNSAPCKQNILRGEDASLAHFPIPQVHQHDGNRYVNTWGVFIVESPDGQWCNWSIQRVQYLNDRQMIALVFPSQHISDIWEEWVKIGKPMPYALVQGCEPIVPYIAGLPLLERNVNEAEYIGALYGKGIEVVKCETHDLRVPASSEVVIEGYFAITREGVEGPFGEFAGYTDNEPSLQPILSITAISWQDDPIWPVVAEGKPVDEYHTCTGIGDAAAIQNVLLTANLPVSFVWVPLYSACHLMIVSINRHWRQTHPDLTSEQLTKKVGDVIHQTRMSIKLPKIVVLDDDVDPADTESLLWALATRIHPERKRYFYESNIFPWLNCYSEEERHNRKGKRVIIDALLPENAGTISSFDYAYPDDIKQRVLMHWETDFSHD | ++++ |
| I283T-N285P-N287T-L289W-Q290E-S322T-N388M-K394R-C430A-L432F-L434W-S436N-dG462 (protein) MFLKSLREQINLLKRQGDLRIINRPVDSYLEAAAIIRRSTETKAPVPLMTNIKGYPGCSIVGGLAALSSNPEYPLSRVAMSLGLSTTASAQSIVQYLIDGLKKTPYLPVEIDSNSAPCKQNILRGEDASLAHFPIPQVHQHDGNRYVNTWGVFIVESPDGQWCNWSIQRVQYLNDRQMIALVFPSQHISDIWEEWVKIGKPMPYALVQGCEPIVPYIAGLPLLERNVNEAEYIGALYGKGIEVVKCETHDLRVPASSEVVIEGYFAITREGVEGPFGEFAGYTPPETSWEPILSITAISWQDDPIWPVVAEGKPVDEYHTCTGIGDAAAIQNVLLTANLPVSFVWVPLYSACHLMIVSINRHWRQTHPDLTSEQLTKKVGDVIHQTRMSIKLPRIVVLDDDVDPADTESLLWALATRIHPERKRYFYESAIFPWLNCYSEEERHNRKGKRVIIDALLPENHGAISSFDYAYPDDIKQRVLMHWETDFSHD | ++++ |
| E126K-H141Q-I283T-N285P-N287T-Q290E-S322T-N388M-K394R-C430A-L432F-L434W-S436N-dG462 (protein) MFLKSLREQINLLKRQGDLRIINRPVDSYLEAAAIIRRSTETKAPVPLMTNIKGYPGCSIVGGLAALSSNPEYPLSRVAMSLGLSTTASAQSIVQYLIDGLKKTPYLPVEIDSNSAPCKQNILRGKDASLAHFPIPQVHQQDGNRYVNTWGVFIVESPDGQWCNWSIQRVQYLNDRQMIALVFPSQHISDIWEEWVKIGKPMPYALVQGCEPIVPYIAGLPLLERNVNEAEYIGALYGKGIEVVKCETHDLRVPASSEVVIEGYFAITREGVEGPFGEFAGYTPPETSLEPILSITAISWQDDPIWPVVAEGKPVDEYHTCTGIGDAAAIQNVLLTANLPVSFVWVPLYSACHLMIVSINRHWRQTHPDLTSEQLTKKVGDVIHQTRMSIKLPRIVVLDDDVDPADTESLLWALATRIHPERKRYFYESAIFPWLNCYSEEERHNRKGKRVIIDALLPENHGAISSFDYAYPDDIKQRVLMHWETDFSHD | ++++ |
| I283L-N285P-N287T-Q290E-S322T-N388M-K394R-C430A-L432F-L434W-S436N-dG462 (protein) MFLKSLREQINLLKRQGDLRIINRPVDSYLEAAAIIRRSTETKAPVPLMTNIKGYPGCSIVGGLAALSSNPEYPLSRVAMSLGLSTTASAQSIVQYLIDGLKKTPYLPVEIDSNSAPCKQNILRGEDASLAHFPIPQVHQHDGNRYVNTWGVFIVESPDGQWCNWSIQRVQYLNDRQMIALVFPSQHISDIWEEWVKIGKPMPYALVQGCEPIVPYIAGLPLLERNVNEAEYIGALYGKGIEVVKCETHDLRVPASSEVVIEGYFAITREGVEGPFGEFAGYLPPETSLEPILSITAISWQDDPIWPVVAEGKPVDEYHTCTGIGDAAAIQNVLLTANLPVSFVWVPLYSACHLMIVSINRHWRQTHPDLTSEQLTKKVGDVIHQTRMSIKLPRIVVLDDDVDPADTESLLWALATRIHPERKRYFYESAIFPWLNCYSEEERHNRKGKRVIIDALLPENHGAISSFDYAYPDDIKQRVLMHWETDFSHD | ++++ |
| P184S-I283T-N285P-N287T-Q290E-S322T-N388M-K394R-C430A-L432F-L434W-S436N-dG462 (protein) MFLKSLREQINLLKRQGDLRIINRPVDSYLEAAAIIRRSTETKAPVPLMTNIKGYPGCSIVGGLAALSSNPEYPLSRVAMSLGLSTTASAQSIVQYLIDGLKKTPYLPVEIDSNSAPCKQNILRGEDASLAHFPIPQVHQHDGNRYVNTWGVFIVESPDGQWCNWSIQRVQYLNDRQMIALVFSSQHISDIWEEWVKIGKPMPYALVQGCEPIVPYIAGLPLLERNVNEAEYIGALYGKGIEVVKCETHDLRVPASSEVVIEGYFAITREGVEGPFGEFAGYTPPETSLEPILSITAISWQDDPIWPVVAEGKPVDEYHTCTGIGDAAAIQNVLLTANLPVSFVWVPLYSACHLMIVSINRHWRQTHPDLTSEQLTKKVGDVIHQTRMSIKLPRIVVLDDDVDPADTESLLWALATRIHPERKRYFYESAIFPWLNCYSEEERHNRKGKRVIIDALLPENHGAISSFDYAYPDDIKQRVLMHWETDFSHD | ++++ |
| V227Y-I283T-N285P-N287T-Q290E-S322T-N388M-K394R-C430A-L432F-L434W-S436N-dG462 (protein) MFLKSLREQINLLKRQGDLRIINRPVDSYLEAAAIIRRSTETKAPVPLMTNIKGYPGCSIVGGLAALSSNPEYPLSRVAMSLGLSTTASAQSIVQYLIDGLKKTPYLPVEIDSNSAPCKQNILRGEDASLAHFPIPQVHQHDGNRYVNTWGVFIVESPDGQWCNWSIQRVQYLNDRQMIALVFPSQHISDIWEEWVKIGKPMPYALVQGCEPIVPYIAGLPLLERNYNEAEYIGALYGKGIEVVKCETHDLRVPASSEVVIEGYFAITREGVEGPFGEFAGYTPPETSLEPILSITAISWQDDPIWPVVAEGKPVDEYHTCTGIGDAAAIQNVLLTANLPVSFVWVPLYSACHLMIVSINRHWRQTHPDLTSEQLTKKVGDVIHQTRMSIKLPRIVVLDDDVDPADTESLLWALATRIHPERKRYFYESAIFPWLNCYSEEERHNRKGKRVIIDALLPENHGAISSFDYAYPDDIKQRVLMHWETDFSHD | ++++ |
| I283T-P284D-i284aP-N287P-S322T-N388M-C430N-L432F-L434W-S436N-H461A-dG462 (protein) MFLKSLREQINLLKRQGDLRIINRPVDSYLEAAAIIRRSTETKAPVPLMTNIKGYPGCSIVGGLAALSSNPEYPLSRVAMSLGLSTTASAQSIVQYLIDGLKKTPYLPVEIDSNSAPCKQNILRGEDASLAHFPIPQVHQHDGNRYVNTWGVFIVESPDGQWCNWSIQRVQYLNDRQMIALVFPSQHISDIWEEWVKIGKPMPYALVQGCEPIVPYIAGLPLLERNVNEAEYIGALYGKGIEVVKCETHDLRVPASSEVVIEGYFAITREGVEGPFGEFAGYTDNEPSLQPILSITAISWQDDPIWPVVAEGKPVDEYHTCTGIGDAAAIQNVLLTANLPVSFVWVPLYSACHLMIVSINRHWRQTHPDLTSEQLTKKVGDVIHQTRMSIKLPKIVVLDDDVDPADTESLLWALATRIHPERKRYFYESNIFPWLNCYSEEERHNRKGKRVIIDALLPENAGAISSFDYAYPDDIKQRVLMHWETDFSHD | ++++ |
| L223Y-I283T-N285P-N287T-Q290E-S322T-N388M-K394R-C430A-L432F-L434W-S436N-dG462 (protein) MFLKSLREQINLLKRQGDLRIINRPVDSYLEAAAIIRRSTETKAPVPLMTNIKGYPGCSIVGGLAALSSNPEYPLSRVAMSLGLSTTASAQSIVQYLIDGLKKTPYLPVEIDSNSAPCKQNILRGEDASLAHFPIPQVHQHDGNRYVNTWGVFIVESPDGQWCNWSIQRVQYLNDRQMIALVFPSQHISDIWEEWVKIGKPMPYALVQGCEPIVPYIAGLPLYERNVNEAEYIGALYGKGIEVVKCETHDLRVPASSEVVIEGYFAITREGVEGPFGEFAGYTPPETSLEPILSITAISWQDDPIWPVVAEGKPVDEYHTCTGIGDAAAIQNVLLTANLPVSFVWVPLYSACHLMIVSINRHWRQTHPDLTSEQLTKKVGDVIHQTRMSIKLPRIVVLDDDVDPADTESLLWALATRIHPERKRYFYESAIFPWLNCYSEEERHNRKGKRVIIDALLPENHGAISSFDYAYPDDIKQRVLMHWETDFSHD | ++++ |
| I283T-N285P-N287T-L289R-Q290E-S322T-N388M-K394R-C430A-L432F-L434W-S436N-dG462 (protein) MFLKSLREQINLLKRQGDLRIINRPVDSYLEAAAIIRRSTETKAPVPLMTNIKGYPGCSIVGGLAALSSNPEYPLSRVAMSLGLSTTASAQSIVQYLIDGLKKTPYLPVEIDSNSAPCKQNILRGEDASLAHFPIPQVHQHDGNRYVNTWGVFIVESPDGQWCNWSIQRVQYLNDRQMIALVFPSQHISDIWEEWVKIGKPMPYALVQGCEPIVPYIAGLPLLERNVNEAEYIGALYGKGIEVVKCETHDLRVPASSEVVIEGYFAITREGVEGPFGEFAGYTPPETSREPILSITAISWQDDPIWPVVAEGKPVDEYHTCTGIGDAAAIQNVLLTANLPVSFVWVPLYSACHLMIVSINRHWRQTHPDLTSEQLTKKVGDVIHQTRMSIKLPRIVVLDDDVDPADTESLLWALATRIHPERKRYFYESAIFPWLNCYSEEERHNRKGKRVIIDALLPENHGAISSFDYAYPDDIKQRVLMHWETDFSHD | ++++ |
| N287Q-N388M-K394R-C430N-L432F-L434W-S436N (protein) MFLKSLREQINLLKRQGDLRIINRPVDSYLEAAAIIRRSTETKAPVPLMTNIKGYPGCSIVGGLAALSSNPEYPLSRVAMSLGLSTTASAQSIVQYLIDGLKKTPYLPVEIDSNSAPCKQNILRGEDASLAHFPIPQVHQHDGNRYVNTWGVFIVESPDGQWCNWSIQRVQYLNDRQMIALVFPSQHISDIWEEWVKIGKPMPYALVQGCEPIVPYIAGLPLLERNVNEAEYIGALYGKGIEVVKCETHDLRVPASSEVVIEGYFAITREGVEGPFGEFAGYIPNEQSLQPILSITAISWQDDPIWPVVAEGKPVDEYHTCSGIGDAAAIQNVLLTANLPVSFVWVPLYSACHLMIVSINRHWRQTHPDLTSEQLTKKVGDVIHQTRMSIKLPRIVVLDDDVDPADTESLLWALATRIHPERKRYFYESNIFPWLNCYSEEERHNRKGKRVIIDALLPENHGAISSFDYAYPDDIKQRVLMHWETDFSHD | + |
